Data from the supplement of paper PMC9112550, “Optimization of the antimicrobial peptide Bac7 by deep mutational scanning” (BMC Biology, 2022).

Tested on: Escherichia coli TOP10
Assay: shrunken log2 fold change of peptide-encoding DNA abundance (4.5 h post-induction vs induction); higher = less antimicrobial activity (less host growth inhibition)
Conditions: time post-induction: 4.5 h; library: site-saturation at positions 5, 18, 19, 20
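Note: peptides expressed intracellularly from a pBAD plasmid library in pooled LB shake-flask culture, induced with 0.3% L-arabinose, DNA abundance read by NGS, three biological replicates, DESeq2 with apeglm shrinkage.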

## RRIRLRPPRLPRPRPRPVTWPRP
  shrunken log2 fold change: -0.0276

## RRIRLRPPRLPRPRPRPVVAPRP
  shrunken log2 fold change: 0.0705

## RRIRLRPPRLPRPRPRPVVFPRP
  shrunken log2 fold change: -0.136

## RRIRLRPPRLPRPRPRPVVKPRP
  shrunken log2 fold change: -0.166

## RRIRLRPPRLPRPRPRPVVNPRP
  shrunken log2 fold change: -0.0535

## RRIRLRPPRLPRPRPRPVVTPRP
  shrunken log2 fold change: -0.0571

## RRIRLRPPRLPRPRPRPVYIPRP
  shrunken log2 fold change: -0.258

## RRIRLRPPRLPRPRPRPWCTPRP
  shrunken log2 fold change: 0.0254

## RRIRLRPPRLPRPRPRPWFLPRP
  shrunken log2 fold change: -0.449

## RRIRLRPPRLPRPRPRPWFRPRP
  shrunken log2 fold change: -0.252

## RRIRLRPPRLPRPRPRPWGGPRP
  shrunken log2 fold change: 1.94

## RRIRLRPPRLPRPRPRPWHTPRP
  shrunken log2 fold change: -0.314

## RRIRLRPPRLPRPRPRPWIQPRP
  shrunken log2 fold change: -0.355

## RRIRLRPPRLPRPRPRPWIYPRP
  shrunken log2 fold change: -0.385

## RRIRLRPPRLPRPRPRPWLNPRP
  shrunken log2 fold change: -0.183

## RRIRLRPPRLPRPRPRPWMAPRP
  shrunken log2 fold change: -0.346

## RRIRLRPPRLPRPRPRPWNFPRP
  shrunken log2 fold change: -0.0899

## RRIRLRPPRLPRPRPRPWNHPRP
  shrunken log2 fold change: -0.347

## RRIRLRPPRLPRPRPRPWPAPRP
  shrunken log2 fold change: 0.0194

## RRIRLRPPRLPRPRPRPWQVPRP
  shrunken log2 fold change: 0.0253

## RRIRLRPPRLPRPRPRPWRRPRP
  shrunken log2 fold change: 0.0451

## RRIRLRPPRLPRPRPRPWSIPRP
  shrunken log2 fold change: -0.0808

## RRIRLRPPRLPRPRPRPWTFPRP
  shrunken log2 fold change: -0.0155

## RRIRLRPPRLPRPRPRPWTGPRP
  shrunken log2 fold change: -0.0428

## RRIRLRPPRLPRPRPRPWVKPRP
  shrunken log2 fold change: -0.0122

## RRIRLRPPRLPRPRPRPWWAPRP
  shrunken log2 fold change: 0.0811

## RRIRLRPPRLPRPRPRPWWFPRP
  shrunken log2 fold change: -0.21

## RRIRLRPPRLPRPRPRPWWYPRP
  shrunken log2 fold change: -0.227

## RRIRLRPPRLPRPRPRPYAMPRP
  shrunken log2 fold change: -0.226

## RRIRLRPPRLPRPRPRPYCAPRP
  shrunken log2 fold change: -0.151

## RRIRLRPPRLPRPRPRPYCEPRP
  shrunken log2 fold change: -0.135

## RRIRLRPPRLPRPRPRPYCKPRP
  shrunken log2 fold change: -0.736

## RRIRLRPPRLPRPRPRPYCVPRP
  shrunken log2 fold change: -0.622

## RRIRLRPPRLPRPRPRPYDFPRP
  shrunken log2 fold change: -0.0867

## RRIRLRPPRLPRPRPRPYDVPRP
  shrunken log2 fold change: -0.366

## RRIRLRPPRLPRPRPRPYECPRP
  shrunken log2 fold change: -0.352

## RRIRLRPPRLPRPRPRPYEIPRP
  shrunken log2 fold change: -0.012

## RRIRLRPPRLPRPRPRPYFNPRP
  shrunken log2 fold change: -1.13

## RRIRLRPPRLPRPRPRPYLEPRP
  shrunken log2 fold change: -0.169

## RRIRLRPPRLPRPRPRPYMQPRP
  shrunken log2 fold change: -0.297

## RRIRLRPPRLPRPRPRPYNGPRP
  shrunken log2 fold change: -0.103

## RRIRLRPPRLPRPRPRPYNMPRP
  shrunken log2 fold change: -0.859

## RRIRLRPPRLPRPRPRPYPGPRP
  shrunken log2 fold change: -0.251

## RRIRLRPPRLPRPRPRPYQDPRP
  shrunken log2 fold change: -0.106

## RRIRLRPPRLPRPRPRPYQEPRP
  shrunken log2 fold change: -0.46

## RRIRLRPPRLPRPRPRPYQRPRP
  shrunken log2 fold change: -0.393

## RRIRLRPPRLPRPRPRPYRFPRP
  shrunken log2 fold change: 0.0498

## RRIRLRPPRLPRPRPRPYRPPRP
  shrunken log2 fold change: -0.221

## RRIRLRPPRLPRPRPRPYRVPRP
  shrunken log2 fold change: -0.00141

## RRIRLRPPRLPRPRPRPYSWPRP
  shrunken log2 fold change: -0.176

## RRIRLRPPRLPRPRPRPYTWPRP
  shrunken log2 fold change: -0.716

## RRIRLRPPRLPRPRPRPYVIPRP
  shrunken log2 fold change: -0.662

## RRIRLRPPRLPRPRPRPYYFPRP
  shrunken log2 fold change: -0.767

## RRIRMRPPRLPRPRPRPAAFPRP
  shrunken log2 fold change: 0.503

## RRIRMRPPRLPRPRPRPACSPRP
  shrunken log2 fold change: 0.551

## RRIRMRPPRLPRPRPRPADCPRP
  shrunken log2 fold change: 0.918

## RRIRMRPPRLPRPRPRPAENPRP
  shrunken log2 fold change: 0.084

## RRIRMRPPRLPRPRPRPAFKPRP
  shrunken log2 fold change: -0.323

## RRIRMRPPRLPRPRPRPAHCPRP
  shrunken log2 fold change: 0.352

## RRIRMRPPRLPRPRPRPALPPRP
  shrunken log2 fold change: 0.363

## RRIRMRPPRLPRPRPRPANAPRP
  shrunken log2 fold change: 0.442

## RRIRMRPPRLPRPRPRPAPDPRP
  shrunken log2 fold change: 1.15

## RRIRMRPPRLPRPRPRPARGPRP
  shrunken log2 fold change: 1.1

## RRIRMRPPRLPRPRPRPARSPRP
  shrunken log2 fold change: 1.05

## RRIRMRPPRLPRPRPRPAVAPRP
  shrunken log2 fold change: 1.04

## RRIRMRPPRLPRPRPRPAVCPRP
  shrunken log2 fold change: 0.103

## RRIRMRPPRLPRPRPRPAVQPRP
  shrunken log2 fold change: 0.0778

## RRIRMRPPRLPRPRPRPAWVPRP
  shrunken log2 fold change: 0.375

## RRIRMRPPRLPRPRPRPAYYPRP
  shrunken log2 fold change: -0.3

## RRIRMRPPRLPRPRPRPCCEPRP
  shrunken log2 fold change: 0.192

## RRIRMRPPRLPRPRPRPCCRPRP
  shrunken log2 fold change: 0.0467

## RRIRMRPPRLPRPRPRPCCVPRP
  shrunken log2 fold change: 0.166

## RRIRMRPPRLPRPRPRPCDNPRP
  shrunken log2 fold change: 0.0146

## RRIRMRPPRLPRPRPRPCDTPRP
  shrunken log2 fold change: 0.13

## RRIRMRPPRLPRPRPRPCEGPRP
  shrunken log2 fold change: -0.00822

## RRIRMRPPRLPRPRPRPCFCPRP
  shrunken log2 fold change: 0.0295

## RRIRMRPPRLPRPRPRPCISPRP
  shrunken log2 fold change: 0.00253

## RRIRMRPPRLPRPRPRPCIVPRP
  shrunken log2 fold change: -0.0122

## RRIRMRPPRLPRPRPRPCLHPRP
  shrunken log2 fold change: -0.608

## RRIRMRPPRLPRPRPRPCLMPRP
  shrunken log2 fold change: 0.0359

## RRIRMRPPRLPRPRPRPCLQPRP
  shrunken log2 fold change: -0.0178

## RRIRMRPPRLPRPRPRPCMEPRP
  shrunken log2 fold change: 0.112

## RRIRMRPPRLPRPRPRPCPSPRP
  shrunken log2 fold change: 0.0607

## RRIRMRPPRLPRPRPRPCSTPRP
  shrunken log2 fold change: 0.477

## RRIRMRPPRLPRPRPRPCWVPRP
  shrunken log2 fold change: 0.827

## RRIRMRPPRLPRPRPRPCYAPRP
  shrunken log2 fold change: -0.105

## RRIRMRPPRLPRPRPRPCYKPRP
  shrunken log2 fold change: -0.145

## RRIRMRPPRLPRPRPRPCYSPRP
  shrunken log2 fold change: -0.711

## RRIRMRPPRLPRPRPRPDCLPRP
  shrunken log2 fold change: 1.54

## RRIRMRPPRLPRPRPRPDESPRP
  shrunken log2 fold change: 2.38

## RRIRMRPPRLPRPRPRPDGNPRP
  shrunken log2 fold change: 0.0626

## RRIRMRPPRLPRPRPRPDGVPRP
  shrunken log2 fold change: 0.0632

## RRIRMRPPRLPRPRPRPDHRPRP
  shrunken log2 fold change: -0.279

## RRIRMRPPRLPRPRPRPDIMPRP
  shrunken log2 fold change: 2.19

## RRIRMRPPRLPRPRPRPDISPRP
  shrunken log2 fold change: -0.0568

## RRIRMRPPRLPRPRPRPDLAPRP
  shrunken log2 fold change: 1.4

## RRIRMRPPRLPRPRPRPDLIPRP
  shrunken log2 fold change: 0.0508

## RRIRMRPPRLPRPRPRPDMTPRP
  shrunken log2 fold change: -0.05

## RRIRMRPPRLPRPRPRPDPRPRP
  shrunken log2 fold change: 0.104

## RRIRMRPPRLPRPRPRPDQAPRP
  shrunken log2 fold change: 0.357

## RRIRMRPPRLPRPRPRPDQNPRP
  shrunken log2 fold change: 0.405

## RRIRMRPPRLPRPRPRPDSSPRP
  shrunken log2 fold change: 0.0874

## RRIRMRPPRLPRPRPRPDVQPRP
  shrunken log2 fold change: -0.00142

## RRIRMRPPRLPRPRPRPDWSPRP
  shrunken log2 fold change: -0.0229

## RRIRMRPPRLPRPRPRPDYRPRP
  shrunken log2 fold change: -0.146

## RRIRMRPPRLPRPRPRPEADPRP
  shrunken log2 fold change: 0.136

## RRIRMRPPRLPRPRPRPECPPRP
  shrunken log2 fold change: 0.43

## RRIRMRPPRLPRPRPRPECQPRP
  shrunken log2 fold change: 3.29

## RRIRMRPPRLPRPRPRPEDIPRP
  shrunken log2 fold change: -0.0245

## RRIRMRPPRLPRPRPRPEESPRP
  shrunken log2 fold change: 0.113

## RRIRMRPPRLPRPRPRPEFAPRP
  shrunken log2 fold change: 0.679

## RRIRMRPPRLPRPRPRPEFCPRP
  shrunken log2 fold change: 1.18

## RRIRMRPPRLPRPRPRPEHAPRP
  shrunken log2 fold change: 2.54

## RRIRMRPPRLPRPRPRPEHSPRP
  shrunken log2 fold change: 0.234

## RRIRMRPPRLPRPRPRPELAPRP
  shrunken log2 fold change: 3.6

## RRIRMRPPRLPRPRPRPELWPRP
  shrunken log2 fold change: 3.17

## RRIRMRPPRLPRPRPRPENAPRP
  shrunken log2 fold change: 0.0504

## RRIRMRPPRLPRPRPRPESAPRP
  shrunken log2 fold change: 2.73

## RRIRMRPPRLPRPRPRPESGPRP
  shrunken log2 fold change: 0.908

## RRIRMRPPRLPRPRPRPESIPRP
  shrunken log2 fold change: 0.522

## RRIRMRPPRLPRPRPRPESQPRP
  shrunken log2 fold change: 2.59

## RRIRMRPPRLPRPRPRPETWPRP
  shrunken log2 fold change: 1.44

## RRIRMRPPRLPRPRPRPEWDPRP
  shrunken log2 fold change: 3.48

## RRIRMRPPRLPRPRPRPEWPPRP
  shrunken log2 fold change: 0.0994

## RRIRMRPPRLPRPRPRPEYDPRP
  shrunken log2 fold change: 2.81

## RRIRMRPPRLPRPRPRPEYLPRP
  shrunken log2 fold change: -0.082

## RRIRMRPPRLPRPRPRPEYRPRP
  shrunken log2 fold change: -0.000921

## RRIRMRPPRLPRPRPRPEYSPRP
  shrunken log2 fold change: 0.0257

## RRIRMRPPRLPRPRPRPFAAPRP
  shrunken log2 fold change: 0.789

## RRIRMRPPRLPRPRPRPFALPRP
  shrunken log2 fold change: 0.0192

## RRIRMRPPRLPRPRPRPFARPRP
  shrunken log2 fold change: 0.412

## RRIRMRPPRLPRPRPRPFDEPRP
  shrunken log2 fold change: -0.0062

## RRIRMRPPRLPRPRPRPFDVPRP
  shrunken log2 fold change: 0.268

## RRIRMRPPRLPRPRPRPFEQPRP
  shrunken log2 fold change: 0.0263

## RRIRMRPPRLPRPRPRPFEYPRP
  shrunken log2 fold change: -0.219

## RRIRMRPPRLPRPRPRPFFWPRP
  shrunken log2 fold change: 0.593

## RRIRMRPPRLPRPRPRPFGGPRP
  shrunken log2 fold change: 0.222

## RRIRMRPPRLPRPRPRPFGHPRP
  shrunken log2 fold change: -0.0287

## RRIRMRPPRLPRPRPRPFGQPRP
  shrunken log2 fold change: 0.0853

## RRIRMRPPRLPRPRPRPFGWPRP
  shrunken log2 fold change: 0.32

## RRIRMRPPRLPRPRPRPFIEPRP
  shrunken log2 fold change: -0.0583

## RRIRMRPPRLPRPRPRPFLPPRP
  shrunken log2 fold change: -0.346

## RRIRMRPPRLPRPRPRPFLRPRP
  shrunken log2 fold change: -0.22

## RRIRMRPPRLPRPRPRPFLWPRP
  shrunken log2 fold change: 0.0175

## RRIRMRPPRLPRPRPRPFMRPRP
  shrunken log2 fold change: 0.345

## RRIRMRPPRLPRPRPRPFQDPRP
  shrunken log2 fold change: -0.235

## RRIRMRPPRLPRPRPRPFRKPRP
  shrunken log2 fold change: -0.0166

## RRIRMRPPRLPRPRPRPFRQPRP
  shrunken log2 fold change: 0.0135

## RRIRMRPPRLPRPRPRPFRRPRP
  shrunken log2 fold change: -0.117

## RRIRMRPPRLPRPRPRPFSDPRP
  shrunken log2 fold change: -0.0199
